Measured values: the Immune Epitope Database (IEDB)

Target: HLA-A*02:01
Experiment: IEDB peptide-MHC binding, cellular MHC/competitive/fluorescence; ≥ and ≤ were set here for values at or beyond the usual limits of such assays
Details: source organism: Hepatitis B virus

Sequence | IC50
HQLDPAFRA | 6.45 µM
KVGAGAFGL | 11 µM
RILTIPQSL | 39.1 µM
RVRGLYFPA | 18 µM
SMYPSCCCT | 6.43 µM

Same assay, conditions: source organism: Influenza A virus

Sequence | IC50
YLEKANKI | 12.3 µM

Same assay, conditions: source organism: Mammarenavirus guanaritoense

Sequence | IC50
YVIGLLPQS | ≥ 70 µM

Same assay, conditions: source organism: Mammarenavirus machupoense

Sequence | IC50
YNCKCCWFA | 42.9 µM
YNFSLSAAV | 7.51 µM

Same assay, conditions: source organism: Mammarenavirus whitewaterense

Sequence | IC50
YCHGILLKDV | 11.4 µM

Same assay, conditions: source organism: Vaccinia virus WR

Sequence | IC50
VMDKNHAIFT | 8.7 µM
VTGSYNLVDT | ≥ 70 µM
VTKSSSWKDV | ≥ 70 µM
VVKDKIKLPT | 40.2 µM
YIKDLKHAT | 8.08 µM
YTLIYRQLT | 28.5 µM
YVEHDPRLVA | 57.5 µM
YVKNGTKGKL | 40.6 µM
YVPSAEDNYL | ≥ 70 µM

Target: HLA-A*02:02
Experiment: as above
Details: source organism: Hepatitis B virus

Sequence | IC50
HQLDPAFRA | 16 µM
KVGAGAFGL | 9.12 µM
RILTIPQSL | 6.45 µM
SMYPSCCCT | 10.3 µM

Same assay, conditions: source organism: Influenza A virus

Sequence | IC50
YLEKANKI | 8.22 µM

Same assay, conditions: source organism: Mammarenavirus guanaritoense

Sequence | IC50
YVIGLLPQS | ≥ 70 µM

Same assay, conditions: source organism: Mammarenavirus machupoense

Sequence | IC50
YNCKCCWFA | 16.1 µM
YNFSLSAAV | 46.3 µM

Same assay, conditions: source organism: Mammarenavirus whitewaterense

Sequence | IC50
YCHGILLKDV | ≥ 70 µM

Same assay, conditions: source organism: Vaccinia virus WR

Sequence | IC50
VMDKNHAIFT | 18.7 µM
VTGSYNLVDT | ≥ 70 µM
VTKSSSWKDV | ≥ 70 µM
VVKDKIKLPT | 37.3 µM
YIKDLKHAT | 18.5 µM
YTLIYRQLT | 6.41 µM
YVEHDPRLVA | 18.6 µM
YVKNGTKGKL | 5.72 µM
YVPSAEDNYL | ≥ 70 µM

Target: HLA-A*02:03
Experiment: as above
Details: source organism: Hepatitis B virus

Sequence | IC50
HQLDPAFRA | 55.9 µM
KVGAGAFGL | 34.7 µM
LLVLLDYQGM | 5.58 µM
RILTIPQSL | 9.77 µM
SMYPSCCCT | 5.52 µM
VLLDYQGML | 22.6 µM

Same assay, conditions: source organism: Influenza A virus

Sequence | IC50
YLEKANKI | 38.3 µM

Same assay, conditions: source organism: Mammarenavirus guanaritoense

Sequence | IC50
YVIGLLPQS | ≥ 70 µM

Same assay, conditions: source organism: Mammarenavirus machupoense

Sequence | IC50
YNCKCCWFA | 31.9 µM
YNFSLSAAV | ≥ 70 µM

Same assay, conditions: source organism: Mammarenavirus whitewaterense

Sequence | IC50
YCHGILLKDV | 13 µM

Same assay, conditions: source organism: Vaccinia virus WR

Sequence | IC50
VMDKNHAIFT | 11.5 µM
VTGSYNLVDT | ≥ 70 µM
VTKSSSWKDV | 41.9 µM
VVKDKIKLPT | 8.6 µM
YIKDLKHAT | ≥ 70 µM
YTLIYRQLT | 9.42 µM
YVEHDPRLVA | 16.2 µM
YVKNGTKGKL | 7.17 µM
YVPSAEDNYL | ≥ 70 µM

Target: HLA-A*02:06
Experiment: as above
Details: source organism: Hepatitis B virus

Sequence | IC50
RILTIPQSL | 5.95 µM
RVRGLYFPA | 8.24 µM
SMYPSCCCT | 9.31 µM

Same assay, conditions: source organism: Influenza A virus

Sequence | IC50
YLEKANKI | ≥ 70 µM

Same assay, conditions: source organism: Mammarenavirus guanaritoense

Sequence | IC50
YVIGLLPQS | 48.1 µM

Same assay, conditions: source organism: Mammarenavirus machupoense

Sequence | IC50
YNCKCCWFA | ≥ 70 µM
YNFSLSAAV | ≥ 70 µM

Same assay, conditions: source organism: Mammarenavirus whitewaterense

Sequence | IC50
YCHGILLKDV | 15 µM

Same assay, conditions: source organism: Vaccinia virus WR

Sequence | IC50
VMDKNHAIFT | ≥ 70 µM
VTGSYNLVDT | ≥ 70 µM
VTKSSSWKDV | ≥ 70 µM
VVKDKIKLPT | 29.1 µM
YIKDLKHAT | 39.4 µM
YTLIYRQLT | 17.6 µM
YVEHDPRLVA | 11.9 µM
YVKNGTKGKL | 28.5 µM
YVPSAEDNYL | ≥ 70 µM

Target: HLA-A*03:01
Experiment: as above
Details: source organism: Hepatitis B virus

Sequence | IC50
ALMPLYACI | ≥ 70 µM
FLCKQYLNL | ≥ 70 µM
FLGPLLVLQA | 33.1 µM
FLLAQFTSAI | 11.2 µM
FLLTRILTI | ≥ 70 µM
FLPSDFFPSV | ≥ 70 µM
GLLGWSPQA | 14 µM
GLSRYVARV | 7.23 µM
GMLPVCPLI | ≥ 70 µM
HQLDPAFRA | ≥ 70 µM
ILCWGELMTL | 9.08 µM
KQYLNLYPV | ≥ 70 µM
KVGAGAFGL | 25 µM
LLVLLDYQGM | 19.5 µM
LVPFVQWFV | ≥ 70 µM
NLSWLSLDV | 9.22 µM
PLLPIFFCL | ≥ 70 µM
RILTIPQSL | ≥ 70 µM
RVRGLYFPA | ≥ 70 µM
SLYSILSPFL | 14.3 µM
SMYPSCCCT | ≥ 70 µM
VLLDYQGML | ≥ 70 µM
WLSLLVPFV | 40.3 µM
WMMWYWGPSL | 15.4 µM
YLVSFGVWI | 15.2 µM
YMDDVVLGA | 69.4 µM
YQGMLPVCPL | 24 µM

Target: HLA-A*11:01
Experiment: as above
Details: source organism: Hepatitis B virus

Sequence | IC50
ALMPLYACI | ≥ 70 µM
FLAPLPIHTA | 43.2 µM
FLCKQYLNL | ≥ 70 µM
FLGPLLVLQA | 61.2 µM
FLLAQFTSAI | ≥ 70 µM
GLLGWSPQA | ≥ 70 µM
GLSRYVARV | ≥ 70 µM
GMLPVCPLI | ≥ 70 µM
HQLDPAFRA | 14.7 µM
ILCWGELMTL | ≥ 70 µM
KQYLNLYPV | 30.4 µM
KVGAGAFGL | ≥ 70 µM
LLVLLDYQGM | ≥ 70 µM
LVPFVQWFV | 69.8 µM
NLSWLSLDV | ≥ 70 µM
PLLPIFFCL | ≥ 70 µM
RILTIPQSL | ≥ 70 µM
RVRGLYFPA | ≥ 70 µM
SLYSILSPFL | ≥ 70 µM
SMYPSCCCT | ≥ 70 µM
VLLDYQGML | 35.2 µM
WMMWYWGPSL | ≥ 70 µM
YLVSFGVWI | ≥ 70 µM
YMDDVVLGA | ≥ 70 µM
YQGMLPVCPL | ≥ 70 µM

Target: HLA-A*31:01
Experiment: as above
Details: source organism: Hepatitis B virus

Sequence | IC50
ALMPLYACI | 50.3 µM
FLAPLPIHTA | ≥ 70 µM
FLCKQYLNL | 26.3 µM
FLGPLLVLQA | 14.7 µM
FLLAQFTSA | 25.7 µM
FLLAQFTSAI | 16.1 µM
FLLSLGIHL | 6.79 µM
FLLTRILTI | ≥ 70 µM
FLPSDFFPSV | 20.1 µM
GLLGWSPQA | 9.14 µM
GLSRYVARV | 24.7 µM
HQLDPAFRA | 40.6 µM
KVGAGAFGL | 12.6 µM
LLVLLDYQGM | 7.26 µM
NLSWLSLDV | 15.4 µM
PLLPIFFCL | 9.87 µM
RILTIPQSL | 36.9 µM
SLYSILSPFL | 5.67 µM
SMYPSCCCT | 68.4 µM
VLLDYQGML | 12.8 µM
WLSLLVPFV | 11.7 µM
YLVSFGVWI | ≥ 70 µM
YMDDVVLGA | ≥ 70 µM
YQGMLPVCPL | 11.4 µM

Target: HLA-A*68:01
Experiment: as above
Details: source organism: Hepatitis B virus

Sequence | IC50
ALMPLYACI | ≥ 70 µM
FLAPLPIHTA | 35.5 µM
FLCKQYLNL | ≥ 70 µM
